# The DeepSol protein solubility set
# Assay: soluble on expression in E. coli; label from the status in PepcDB or PDB records
row,Sequence,soluble on expression in E. coli
1,MSLTAIHRPTWVSVDLDAAAHNLQEIREWTKAKKVYAVLKADGYGLGAIPLAKAFQETASADALIVSNLDEALELRQADLTLPIWVLGAWDYSDLKLFIDHDIVITIPSLAWLQNLPDFEGTLKVSLAIDTGMTRIGFDKADEISAAKKIIDKNPQLDLFSVYTHFATADEAGEKSKAYFEEQLRRWQELTINQGFDPSLFSMANSATCIWHHDDPRISFAAIRPGQLISGVNVSNGELKMPPNLHLERIFSVCSEIADVRFVKKDQSLSYGASERMPEDGYVATLPFGYNDGWLRRMQKSSVIINGKRMPIIGRITMDQTMVKLDRKYPIGTRVTLIGKDGGEQITVEEVANYSHTIVDEIQTTLAPRIKRIYTGDLAEVIGANYGEGHHHHHH,soluble
2,SLIKNGELKPGDKLDSVQALAESFQVSRSAVREALSALKAMGLVEMKQGEGTYLKEFELNQISQPLSAALLMKKEDVKQLLEVRKLLEIGVASLAAEKRTEADLERIQDALKEMGSIEADGELGEKADFAFHLALADASQNELLKHLMNHVSSLLLETMRETRKIWLFSKKTSVQRLYEEHERIYNAVAAGNGAQAEAAMLAHLTNVEDVLSGYFEENVQ,soluble
3,VSNKTYYLVGTSHISENSVKLVKEVIERVQPDTVSIELDKKRYEKYTNSNQWGNTDIIKIIKEKKLVVLISNIVYSAYQKKLANTKGTTQAGELIQAIKSAKEIGANIQLIDRDIQVTFKRMWRHLSFLEKPKLFMTFFTEFDDIEQDKLEEYLESDSFDKVFISLSKKYPSLYQDMITDRDKYMSTKLKNNSSQVNVVVVGKAHMKGIKEKLEKRTEFSL,not soluble
4,MGSDKIHHHHHHMIGALYVVGPAGTGKSTFSGSLNEWLKRMEFDSAIINLDPGADYLPYEPDFDIREYISLDSIMSDYNLGPNGSQIVAADMIVSYTDKITEFLEDLDDYYVVVDTPGQIELFTFRTSSTEIVEKVSGQRSMMAYIADAPLATYPSGFIAQKMLYASVFSRFFRPMMFVLNKIDLVSDEDIQEVKKWESSPDLLNDAFMEEKGQMEKDYFVGILQAFKESNIMTKIYPVSSRDSFGFEDIYSQMALYFTGGEDNDTYREEG,not soluble
5,LVCRGSNEPTYCLCHQVSYGEMIGCDNPDCPIEWFHFACVDLTTKPKGKWFCPRCVQEK,soluble
6,MSLEPYRPICQNRPICGKIPRLNLTEGDTVLDREGYRPNVGIILINERNEVFWGKRVREHSWQFPQGGIKPGESPETAMYRELYEEVGLLPQHVKIVGRTRDWLRYDVPNNWVRREWRGSYRGQKQIWYLLRLTGRDCDVNLRATRHPEFDGWRWHQYWAPVDEVIDFKRDVYLEALKELSSRFLRGMESYEDFAARQPSGNREGHHHHHH,soluble
7,EPEEVIPSRLDIRVGKIITVEKHPDADSLYVEKIDVGEAEPRTVVSGLVQFVPKEELQDRLVVVLCNLKPQKMRGVESQGMLLCASIEGINRQVEPLDPPAGSAPGEHVFVKGYEKGQPDEELKPKKKVFEKLQADFKISEECIAQWKQTNFMTKLGSISCKSLKGGNISLE,soluble
8,MSNINIRVAHEQDAEELHSIMQIAFTPLRELGIDWPSVHADLEMVKDNLRQNTTFVLENEKEIISTITVCYSWSSVKPISGYPFVWWFATRPTYDGQGYGSQLLKYAEETFLRDTLKAAAVTLGTSARLHPWLLNIYEKRGYEIYAKHENDDGDLGVIMRKILIPEQFNDDILGRPPF,not soluble
9,MMASHSDGKNMAKRKKRTKRGRPRINGCIREPNGRISRTKMPLDPIDKLAIEMRAKRFCLTLQEAKNPLSGTYIGRLYLQGNINQDQYDAAQKYLEVRNDYLCAKTLPSAIYDKMPSSSDEAARKKWVEFATKQFLNMQEVIKETQHLYRQHNFYAALQYLVSEDQELPYLVPSLADSP,not soluble
10,MASTPCAACKLLRRKCTQECVFAPYFPPTNPQKFIFVHRVFGASNVTKILNDLPPDQREDTVNSLFYEAEARIRDPIYGCVGLISFLQQYLKKIQQDLLTAKEELVGYLGPDAVIPPPYLPPIGNNPPPNFMMSMEGMPPGVIPQGEPLMIREPNMSQQHHHQQPQDEQLQFIASDAQRMAAMMLERGDQQGMFNGYGIDNNGSVTATGFNQMDVNDQGAGGSLSGPSLALGSFGDAYQMGQETEHGHINHDQLQTQLMLQPPLQEGQEQTEEGQFLMQPMGQENLHDEEEEEELEPPVKWRMSENKEASF,not soluble
11,MGSDKIHHHHHHMITTWKHHETIEKAKRNAEQKIVSNVEHVEHIALVNQKRVLDAFKRKQVSEHHFTPSTGYGYDDLGRETLEAVYADVFGAETALVRPQIISGTHAIATVLFGLLRPGDELLYITGKPYDTLEEVIGIRGEEGGGSLKDFGITYHAVPLTAEQKVDKAAVKAAMNERTKVIGIQRSKGYADRPSFSINEIEQMVQFVKGINPNVIVFVDNCYGEFVEAKEPCHVGVDVIAGSLIKNPGGGIVKTGGYVAGKAPYVKQASYRLAAPGIGTEGGATLYSLLEMFQGLFLAPHVVSQAVKGAHFTAAFLDELGMRTSPRYDEQRTDLIQSVQFPDREKMIAFCQAIQAASPIDAHVTPQPSSMPGYEDPVIMAAGTFIQGASIELTADGPVRPPYIAYVQGGLTYEHVKLAVMQAADEMLSLETKGTPS,not soluble
12,MGSDKIHHHHHHMKIIQLEYFLAIVKYNSFTKAAQFLHISQPSLTATIKKMEADLGYDLFTRSTKDIKITEKGIQFYRYASELVQQYRSTMEKMYDLSVTSEPRIKIGTLESTNQWIANLIRKHHSDYPEQQYRLYEIHDKHQSIEQSLNFNIHLAITNEKITHEDIRSIPLYEESYILLAPKETFKNQNWVDVENLPLILPNKNSQVRKHLDDYFNRRNIRPNVVVETDRFESAVGFVHLGLGYAIIPRFYYQSFHTSNLEYKKIRPNLGRKIYINYHKKRKHSEQVHTFVQQCQDYLYGLLEAL,not soluble
13,MQKIDEKLQLMNTIAKIYRGSIKEFNNRLGKLMNLSYLDFSILKATSEEPRSMVYLANRYFVTQSAITAAVDKLEAKGLVRRIRDSKDRRIVIVEITPKGRQVLLEANEVLRNLVNEMLSDVENVEELLEGLNKILSRIGSSKD,soluble
14,MKIAGFDIGGANTDMAIIDFGSDGDMKEVRVDFRYLPMWLRKDELAETLLEMVGDDLHELEGVGVCMTAELVDAYPSKAAGVADIIDRVEGAFDVPVAYVSLSGMVDASEALADPMNIAAANWVATSQIASAMSSDCIMVDVGSTTTDIIPVKDGFEAARGRNDLERLSTGELVYTGTLRTNVATIVDRVPLQDKWFRVSSELFAVTADVHRVLGNIGESDYTCSTPDGAGKSVEECMLRIARVLCADLELLSPGDVLDVAEYIYHQQILKIAEGIAEVSEREGLEEVVTTGLGMKILAQRAAEVLELECRTMDEFLTEEECVVAPAVGTALLMEDYLQAQGLLEHHHHHH,not soluble
15,GAMKNSFDRLIDGLAKDYGMPGFPEKKHEHEVYCFEFKEVSIRIYQDKFKWVYFLSDIGVIDNLDSNACQSLLRLNEFNLRTPFFTVGLNEKKDGVVHTRIPLLNLDNVEMRRVFEALLNLSGEVKKTFGFV,soluble
16,MVLETPVCSPIDKESSSDDVQLNKPPKKKRKLDVVYPPRDNTSSSSDVKPKVPGYCGVKAIGCNRSDELLAEVALHSYNSQTGTNLELMTVTQVMLQSVAHINYHMILDAFDPANNSLSSIEICLWDAAVKNNEKLRLVTTFCSLEGSGDKGSQWDPNGVDVLYTGVMPKWLDDGALSGSEKLHYYEVNDSDLQENKWLHLYAQVGAYSKWDLGMVKHFPLEIKKVVVQTMEDDIESNLKLKSSNAIFYITFTTSGGVECACIIRQTRNGRPQHMCLEINNVEMDK,soluble
17,MGSDKIHHHHHHMKQTDVVVIGSGVGGLSCAALLARYGFDVTVCESHSIPGGAAHGFERQGFKFDSGPSLYSGLSYSPSVNPLRQVLDAVGVDLPCVTYDTWGCCLPEGDFDAAVGAEQFCEVLGRLRGEAAVAEWRRLQQVMTPLAQAAIALPPAALRWDIGAALTIGRFAPTLAKQSANFFKLTGPFSRIMDGVVHDPFISNWLNLLCFLLSGLPASGTNAAEVAFMFADWYRPGVALDYPIGGSGALVNALVEGFKKHGGELLLHTHVEQVLVEGNKAAGVRLGDGQEIRARRAVVSNASVWDTLKLLPEGAVSQKFRSQRQATPECDSFMHLHLGINAQGLPPDLACHYIVVNDWELEITAPQNVILVSIPSILDPSLAPQGKHVIHVYTPGNEPYTLWQGMDRRSQEYEQQKRSRAEVMWQAVERIIPDIRSRCEIQLVGTPLTHERFLRRYRGSYGPAISAASGLFPGHGTPLPGLMCCGDSTFPGIGLPAVAASGMIVANTLAPVSQHLAMLDRVGL,not soluble
18,MAHHHHHHMADLYDVLGILHDAEDDAIAKAYRRHSMAVNPQCNPDHPDPAALEKQFKHVSQAYVVLSNPKARGIYDLYGEEGVRHGGTGAQGIPGGIDLDAIDPYAVFRSFFGVDNPFQVIGEINGLRNNRHNFFSSTAVIPKSLVKAPSIEVQLPVTLEDVYYGAVRRASWKCSFVRQGNETVVEEFFELRVPKGAHAGDKFVVDGKGDWEEGRARGDVVVVLELLPHERFRREGDDLVVRVPITLREALCGVTLTVQTMEGTDVAVLIDEIVHPKYSRRVVGQGLPRNDEPSNPRGDLIVECDTTFPGFLTLEQKSELSRILDAK,not soluble
19,MSLAESQLSKLDVNLQSLNPYTFSKTRCIVNLHISDDTKNRDPSTTNGSYSNSQLLSNGEHVCYHFSQDYCVLSIYPVTDAITGKTVVVHLPHETFNDHHTFTMAEEDGCIVMDLILKTGLFLTLRFSLEYLFNRNADINSSWYSLLKPYDFTVRLPDYLYKVNSALSIVYLNDGGLLGLQKTQTSGSDEYDLHPVLFNDNSYFQSFTRFFSHNDSGRENVVSSVSYGDYHLLTLTENCKLRIWDLRTNSVTAQLNLITDPQDKHRKYESIGPYLALLDSVLVVFLPFGNGAFRTFQLSVNNSGGLVLTPRGELIRTNLSTASIWSLVDTKLTKPFELNIETSYLQMVVLWKSNTSIKLQILNFETEALDKHSWVEASNKSLPDILDNDILGDNFEQSLLDLKAHYTPAIYEEAQRILSANGEGHHHHHH,not soluble
20,MGSDKIHHHHHHMTTFHDLPLEERLTLARLGTSHYSRQLSLVDNAEFGEHSLLEGWTRSHLIAHVAYNAIALCNLMHWANTGEETPMYVSPEARNEEIAYGSTLNPDALRNLHEHSVARLDVAWRETSEDAWSHEVLTAQGRTVPASETLWMRSREVWIHAVDLGAVATFGDIPEVILRTLAAEITQKWTSQGAGEGLVLLDEPSSTRYPAAPGQDEVVVSGSLAGIVRYAAGRGSDGVTSSTGEVPEPPRWL,not soluble
21,MGSDKIHHHHHHMNAWEVNFDGLVGLTHHYAGLSFGNEASTRHRFQVSNPRLAAKQGLLKMKALADAGFPQAVIPPHERPFIPVLRQLGFSGSDEQVLEKVARQAPHWLSSVSSASPMWVANAATIAPSADTLDGKVHLTVANLNNKFHRSLEAPVTESLLKAIFNDEEKFSVHSALPQVALLGDEGAANHNRLGGHYGEPGMQLFVYGREEGNDTRPSRYPARQTREASEAVARLNQVNPQQVIFAQQNPDVIDQGVFHNDVIAVSNRQVLFCHQQAFARQSQLLANLRARVNGFMAIEVPATQVSVSDTVSTYLFNSQLLSRDDGSMMLVLPQECREHAGVWGYLNELLAADNPISELKVFDLRESMANGGGPACLRLRVVLTEEERRAVNPAVMMNDTLFNALNDWVDRYYRDRLTAADLADPQLLREGREALDVLSQLLNLGSVYPFQREGGGNG,not soluble
22,MSDESPAFALHSGSSRQRKSLEFRFQQSPRWAPYSSASDGNEQKTSLVNNSLTRPNSSNPQCLNEENGFDRDSTAISTSFRSLLSLSESSVPWETPTNNQSSSLTHCSYPRVFCNPVSVCENPEPDHTQEDSSTNPGSSIMMSTRNHQGSPVEEEVSPNSSSNDMLLDVERSNDTEVANPRSEQGSMTHQRCGICKKLLSQKSPWSSYKILRSRDMPATGVFPCHHVYHVECLDKATPTAQTRDPSCPVCSNTIGVMEQPLIAPETLQMALRSLRRSRTALELETVRVPSNDNQRRHNTRRSHKWDKLSCCLNISFSSSS,soluble
